From publication PMC6379675, “Structural insights into chromosome attachment to the nuclear envelope by an inner nuclear membrane protein Bqt4 in fission yeast” (Nucleic Acids Research, 2018)
Read-outs that look alike come from different tables or passages of the source.

Key:
[1] = biological target: T1, Bqt4_(2–140), N-terminal domain of Bqt4 (S. pombe, UniProt O60158 2-140); experiment: fluorescence polarisation; competition: FITC-labeled Lem2BBM pre-mixed with Bqt4NTD (4°C, 1 h), unlabeled peptides from 10 nM to 200 μM added; 25 mM Tris–HCl pH 8.0, 150 mM NaCl, 10% glycerol; 25°C; settings: both partners purified
T1 construct: Bqt4, S. pombe inner nuclear membrane protein, residues 2-140; also called Bqt4NTD; Bqt4NTD^WT; source: E. coli BL21(DE3), purified (Ni-NTA, on-beads Ulp1 digestion, Superdex200); not shown: His6, N-terminal, cleaved; SUMO, N-terminal, cleaved
T1 sequence (looked up): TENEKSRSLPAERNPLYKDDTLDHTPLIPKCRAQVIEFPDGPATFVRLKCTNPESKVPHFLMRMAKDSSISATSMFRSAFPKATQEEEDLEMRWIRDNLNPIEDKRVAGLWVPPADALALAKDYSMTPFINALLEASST

[2] = biological target: T2, Bqt4NTD D90R (S. pombe, UniProt O60158 2-140, D90 into arginine); experiment: ITC
T2 sequence: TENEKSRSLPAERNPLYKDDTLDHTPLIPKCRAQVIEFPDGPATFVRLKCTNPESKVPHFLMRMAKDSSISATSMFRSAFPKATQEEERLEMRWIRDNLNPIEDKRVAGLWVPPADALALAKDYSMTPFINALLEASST

[3] = biological target: T3, Bqt4NTD R33A (S. pombe, UniProt O60158 2-140, R33A); experiment: ITC
T3 sequence: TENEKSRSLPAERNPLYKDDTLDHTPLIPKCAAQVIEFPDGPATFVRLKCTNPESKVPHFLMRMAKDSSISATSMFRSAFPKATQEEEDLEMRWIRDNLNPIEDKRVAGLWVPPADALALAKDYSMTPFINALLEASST

[4] = biological target: T1, Bqt4_(2–140), N-terminal domain of Bqt4; experiment: ITC; ITC200; peptide (Rap1 479-527 at 1000–1500 μM) titrated into Bqt4 2-140 (100–150 μM), 20°C, 20 mM Tris–HCl pH 8.0, 150 mM NaCl; one binding site model; two independent experiments; settings: both partners purified
[5] = biological target: T4, Bqt4_(2–140), N-terminal domain of Bqt4 (S. pombe, UniProt O60158 2-140); experiment: ITC
T4 chain: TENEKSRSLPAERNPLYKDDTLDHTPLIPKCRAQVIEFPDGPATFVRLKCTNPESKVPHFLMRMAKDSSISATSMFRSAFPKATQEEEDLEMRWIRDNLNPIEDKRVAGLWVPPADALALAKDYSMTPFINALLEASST

[6] = biological target: T5, Bqt4NTD^F61A (S. pombe, UniProt O60158 2-140, F61A); experiment: ITC
T5 sequence: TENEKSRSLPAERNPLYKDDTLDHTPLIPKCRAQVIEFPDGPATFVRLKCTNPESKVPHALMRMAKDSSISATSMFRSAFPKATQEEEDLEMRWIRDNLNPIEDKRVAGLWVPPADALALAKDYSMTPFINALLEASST

[7] = biological target: T4, Bqt4_(2–140), N-terminal domain of Bqt4; experiment: ITC
[8] = biological target: T4, Bqt4_(2–140), N-terminal domain of Bqt4; experiment: FP; competition with FITC-Lem2BBM
[9] = biological target: T6, Bqt4_(2–180) (S. pombe, UniProt O60158 2-180); experiment: ITC
T6 chain: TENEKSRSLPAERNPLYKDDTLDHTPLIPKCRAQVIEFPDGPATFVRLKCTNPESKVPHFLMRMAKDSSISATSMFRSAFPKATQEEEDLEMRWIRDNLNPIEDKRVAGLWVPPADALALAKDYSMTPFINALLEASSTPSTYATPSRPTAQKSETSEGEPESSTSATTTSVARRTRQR

[10] = biological target: T4, Bqt4_(2–140), N-terminal domain of Bqt4; experiment: ITC
[11] = biological target: T7, Bqt4_(2–180) (S. pombe, UniProt O60158 2-180); experiment: ITC; ITC200; peptide (Rap1 479-527 at 1000–1500 μM) titrated into Bqt4 2-140 (100–150 μM), 20°C, 20 mM Tris–HCl pH 8.0, 150 mM NaCl; one binding site model; two independent experiments; settings: both partners purified
T7 construct: Bqt4, S. pombe, residues 2-180; also called N-terminal region of Bqt4; source: E. coli BL21(DE3), purified (Ni-NTA, on-beads Ulp1 digestion, Superdex200); not shown: His6, N-terminal, cleaved; SUMO, N-terminal, cleaved
T7 sequence (looked up): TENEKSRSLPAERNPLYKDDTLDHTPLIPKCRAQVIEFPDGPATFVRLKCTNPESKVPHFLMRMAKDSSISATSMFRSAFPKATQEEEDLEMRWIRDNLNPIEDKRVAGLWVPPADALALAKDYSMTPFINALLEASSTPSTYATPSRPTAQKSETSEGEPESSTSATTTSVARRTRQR

[12] = biological target: T4, Bqt4_(2–140), N-terminal domain of Bqt4; experiment: ITC
[13] = biological target: T5, Bqt4NTD^F61A; experiment: ITC; remark: listed apart in the source
[14] = biological target: T8, Bqt4NTD^R48E (S. pombe, UniProt O60158 2-140, R48E); experiment: ITC
T8 sequence: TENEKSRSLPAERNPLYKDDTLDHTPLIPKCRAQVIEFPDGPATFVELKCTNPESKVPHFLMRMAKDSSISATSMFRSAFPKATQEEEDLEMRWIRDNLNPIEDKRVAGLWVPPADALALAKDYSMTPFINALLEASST

B1: Rap1_(479–527) (domain or fragment, S. pombe, UniProt Q96TL7 479-527, looked up)
chain: EIPLLSDYSDSENISEKSSDDEEAFEKQVTSSYSSPIKVKSQGKSSKGS
notes: also called Rap1^WT; wild-type Rap1; source: E. coli BL21(DE3), purified (glutathione-Sepharose 4B, on-beads 3C digestion, Superdex75); not shown: GST, N-terminal, cleaved
With B1 the IC50 [1] was 50.9 µM, the Kd [2] was 14.4 µM and the Kd [3] was 12.3 µM. The “fold by which the Bqt4-Lem2 interaction is stronger than this pair” value [4] was 20 fold, the Kd [5] was 11.4 µM and the Kd [6] was 909 µM.

B2: Rap1_(479–527) (S496E/S497E) (domain or fragment, S. pombe, UniProt Q96TL7 479-527, looked up)
chain: EIPLLSDYSDSENISEKEEDDEEAFEKQVTSSYSSPIKVKSQGKSSKGS
notes: phosphomimetic; also called Rap1^S496E/S497E; source: E. coli BL21(DE3), purified (glutathione-Sepharose 4B, on-beads 3C digestion, Superdex75); not shown: GST, N-terminal, cleaved
With B2 the Kd [7] was 0.9 µM, the “fold increase in binding affinity against wild-type Rap1” value [4] was 10 fold and the IC50 [8] was 6.8 µM.

B3: Rap1_(479–527) S496E (domain or fragment, S. pombe, UniProt Q96TL7 479-527, looked up)
chain: EIPLLSDYSDSENISEKESDDEEAFEKQVTSSYSSPIKVKSQGKSSKGS
notes: phosphomimetic; also called Rap1^S496E; source: E. coli BL21(DE3), purified (glutathione-Sepharose 4B, on-beads 3C digestion, Superdex75); not shown: GST, N-terminal, cleaved
With B3 the Kd [7] was 2.4 µM and the binding result [4] was “binds”.

B4: Rap1_(479–527) S512E/S513E (domain or fragment, S. pombe, UniProt Q96TL7 479-527, looked up)
chain: EIPLLSDYSDSENISEKSSDDEEAFEKQVTSSYEEPIKVKSQGKSSKGS
notes: phosphomimetic; also called Rap1^S512E/S513E; source: E. coli BL21(DE3), purified (glutathione-Sepharose 4B, on-beads 3C digestion, Superdex75); not shown: GST, N-terminal, cleaved
In the case of B4, the Kd [7] is reported as 115 µM, the “fold decrease in binding affinity against wild-type Rap1” value [4] is reported as 10 fold and the IC50 [8] is reported as > 200 µM.

With EIPLLSDYSDSENISEKSSDDEEAFEKQVTSSYESPIKVKSQGKSSKGS (domain or fragment) [Rap1_(479–527) S512E] the Kd [7] was 27.2 µM.

B5: Rap1_(403-541) (protein)
chain: DSMYRSISNPLHLVDSQHLSPLNRKTHFNNPIGQPQFTCLDDHEKTLRETSFRSLDDMSLRKSNSDNIFVKPGEDLEIPLLSDYSDSENISEKSSDDEEAFEKQVTSSYSSPIKVKSQGKSSKGSSGLDVREHEGSDDD
Binder B5 has a Kd [9] of 5.4 µM and a Kd [10] of 4.8 µM.

EIPLLSDYSDSENISEKSSDDEEAFEKQATSSYSSPIKVKSQGKSSKGS (domain or fragment) [Rap1_(479–527) V507A] gave a Kd [5] of 138 µM.

EIPLLSDYSDSENISEKASDDEEAFEKQVTSSYSSPIKVKSQGKSSKGS [Rap1_(479-527) S496A] gave a Kd [7] of 10.6 µM.

In the case of KSSDDEEAFEKQVTSSYSSPIKVKSQGKSSKGS [Rap1_(495-527)], the Kd [9] is reported as 15.3 µM and the Kd [10] is reported as 14.7 µM.

B6: Rap1_(220-606) (protein)
chain: SVSKSENKALVNNKRYSDSYFYFSKMRRISIDVDYVDEDLNLINAYLSQFGKKRSLNELCALLSRRFSNRHTFSEWRALFMHFFPFINSEGVDPAILSDRETSAMLDETSDNEVADIDDQMIERKYLFSASEPNTVKSTNRLIFSERKAYAADDSIDNTPSKVPIVNSLSDPRTNRPFFYSNPDSMYRSISNPLHLVDSQHLSPLNRKTHFNNPIGQPQFTCLDDHEKTLRETSFRSLDDMSLRKSNSDNIFVKPGEDLEIPLLSDYSDSENISEKSSDDEEAFEKQVTSSYSSPIKVKSQGKSSKGSSGLDVREHEGSDDDAEVFVDRSPESFGATKVAHTSLEGNAASHKKVEENMQQPVTKKQKKYRMVNEEAHTGPTIIIPSD
In the case of B6, the Kd [9] is reported as 12.9 µM and the Kd [10] is reported as 13.7 µM.

B7: Rap1_(490–513), Bqt4-binding motif of Rap1 (peptide, UniProt Q96TL7 490-513, looked up)
chain: ENISEKSSDDEEAFEKQVTSSYSS
notes: 3C cleavage leaves extra N-terminal residues; also called Rap1BBM; source: E. coli BL21(DE3), purified (glutathione-Sepharose 4B, on-beads 3C digestion, Superdex75); not shown: GST, N-terminal, cleaved
In the case of B7, the Kd [9] is reported as 11 µM, the Kd [10] is reported as 11.4 µM and the binding result [4] is reported as “binds”. B7: binds [11].

SESSSPYSEVDSAEEDDELFQNYVLQQTRK [Lem2_(250-279)] was tested, and the Kd [12] was 0.34 µM.

B8: Rap1_(468-519) (protein)
chain: DNIFVKPGEDLEIPLLSDYSDSENISEKSSDDEEAFEKQVTSSYSSPIKVKS
With B8 the Kd [9] was 10.8 µM and the Kd [10] was 6.6 µM.

B9: Rap1_(468-527) (protein)
chain: DNIFVKPGEDLEIPLLSDYSDSENISEKSSDDEEAFEKQVTSSYSSPIKVKSQGKSSKGS
In the case of B9, the Kd [9] is reported as 8.7 µM and the Kd [10] is reported as 5.8 µM.

B10: Rap1_(490-541) (protein)
chain: ENISEKSSDDEEAFEKQVTSSYSSPIKVKSQGKSSKGSSGLDVREHEGSDDD
For B10, the Kd [9] was 9.7 µM and the Kd [10] was 8.3 µM.

Binder EIPLLSDYSDSENISEKSSDAAEAFEKQVTSSYSSPIKVKSQGKSSKGS (domain or fragment) [Rap1_(479–527) D499A/E500A] has a Kd [5] of 862 µM.

For EIPLLSDYSDSENISEKAADDEEAFEKQVTSSYSSPIKVKSQGKSSKGS [Rap1_(479-527) S496A/S497A], the Kd [7] was 8 µM.

EIPLLSDYSDSENISEKSADDEEAFEKQVTSSYSSPIKVKSQGKSSKGS [Rap1_(479-527) S497A] showed a Kd [7] of 9.5 µM.

In the case of EIPLLSDYSDSENISEKSSDDEEAAEKQVTSSYSSPIKVKSQGKSSKGS (domain or fragment) [Rap1_(479–527) F503A], the Kd [5] is reported as 106 µM.

EIPLLSDYSDSENISEKSSDDEEAFEKQVTSSYASPIKVKSQGKSSKGS [Rap1_(479-527) S512A] gave a Kd [7] of 7.1 µM.

B11: Rap1_(468-541) (protein)
chain: DNIFVKPGEDLEIPLLSDYSDSENISEKSSDDEEAFEKQVTSSYSSPIKVKSQGKSSKGSSGLDVREHEGSDDD
B11 was tested, and the Kd [9] was 7.9 µM and the Kd [10] was 5.7 µM.

Binder EIPLLSDYSDSENISEKSSDDEEAFEKQVTSSYSAPIKVKSQGKSSKGS [Rap1_(479-527) S513A] has a Kd [7] of 7.9 µM.

B12: Lem2_(261–279) (peptide, UniProt Q10109 261-279, looked up)
chain: SAEEDDELFQNYVLQQTRK
notes: 3C cleavage leaves extra N-terminal residues; also called Lem2BBM; source: E. coli BL21(DE3), purified (glutathione-Sepharose 4B, on-beads 3C digestion, Superdex75); not shown: GST, N-terminal, cleaved
Binder B12 has an IC50 [1] of 1.2 µM, a Kd [13] of 46 µM and a Kd [14] of 3.2 µM. The Kd [4] was ~0.53 µM.

B13: Sad1 (residues 88–101) (peptide, UniProt Q09825 88-101, looked up)
chain: SDNEEFENVVKNGH
notes: Sad1, S. pombe spindle pole body-associated protein, residues 88-101 (14 residues); 3C cleavage leaves extra N-terminal residues; also called Sad1BBM; Sad1_(88–101); source: E. coli BL21(DE3), purified (glutathione-Sepharose 4B, on-beads 3C digestion, Superdex75); not shown: GST, N-terminal, cleaved
Binder B13 has a Kd [14] of 262 µM and a Kd [4] of 3.7 µM.

In the case of EIPLLSDYSDSENISEKSSDDEEAFEKQVTSSYAAPIKVKSQGKSSKGS [Rap1_(479-527) S512A/S513A], the Kd [7] is reported as 7.3 µM.
